# US20220332795A1 (ARO BIOTHERAPEUTICS, published 2022)
# B1: SEQ ID NO 37 (designed binder, not shown: small tags and cut ends)
# chain: MLPAPKNLVVSRVTEDSARLSWTTPDAAFDSFPIYYWEVTITGEAIYLSVPGSERSYDLTGLKPGTEYPVDIPGVKGGAASPPLSAIFTT
# notes: FN3 domain, hit of the apical domain panning
# B2: SEQ ID NO 202 (designed binder)
# chain: MLPAPKNLVVSRVTEDSARLSWTAPDAAFDSFDIGYTEYGGYGEAILHVPGSERSYDLTGLKPGTEYWVLIQGVKGGGSSVPLSAIFTT
# notes: FN3 domain
# B3: SEQ ID NO 130 (designed binder)
# chain: MLPAPKNLVVSRVTEDSARLSWTAPDAAFDSFVIEYFEWTLNGEAIVLTVPGSERSYDLTGLKPGTEYSVQIYGVKGGCLSRPLSAIFTT
# notes: FN3 domain
# B4: SEQ ID NO 4 (designed binder, not shown: small tags and cut ends)
# chain: MLPAPKNLVVSEVTEDSARLSWQGVARAFDSFLITYRDQIFAGEVIVLTVPGSERSYDLTGLKPGTEYPVWIQGVKGGSPSAPLSAESTT
# notes: as for B1
# B5: SEQ ID NO 70 (designed binder, not shown: small tags and cut ends)
# chain: MLPAPKNLVVSRVTEDSARLSWQGVARAFDSFLITYREQIFAGEVIVLTVPGSERSYDLTGLKPGTEYPVWIQGVKGGDLSNPLSAIFTT
# notes: as for B1
# B6: SEQ ID NO 7 (designed binder, not shown: small tags and cut ends)
# chain: MLPAPKNLVVSDVTEDSARLSWQGVARAFDSFLITYREQIFAGEVIVLTVPGSERSYDLTGLKPGTEYPVWIQGVKGGSPSAPLSAEFTT
# notes: as for B1
# B7: SEQ ID NO 36 (designed binder, not shown: small tags and cut ends)
# chain: MLPAPKNLVVSEVTEDSARLSWQGVARAFDSFLITYREQIFAGEVIVPTVPGSERSYDLTGLKPGTEYPVPIAGVKGGGPSAPLSAIFTT
# notes: as for B1
# B8: SEQ ID NO 94 (designed binder, not shown: small tags and cut ends)
# chain: MLPAPKNLVVSEVTEDSARLSWQGVARAFDSFLITYREQIFAGEVIVLTVPGSERSYDLTGLKPGTEYPVWIQGVKGGSPSAPLSAIFTT
# notes: as for B1
# B9: SEQ ID NO 102 (designed binder, not shown: small tags and cut ends)
# chain: MLPAPKNLVVSRVTEDSARLSWQGVARAFDSFLITYREQIFAGEVIVLTVPGSERSYDLTGLKPGTEYPVWIQGVKGGSPSAPLSAEFTT
# notes: as for B1
# B10: SEQ ID NO 15 (designed binder, not shown: small tags and cut ends)
# chain: MLPAPKNLVVSRVTEDSARLSWQGVARAFDSFLITYREQIFAGEVIVLTVPGSERSYDLTGLKPGTECPVWIQGVKGGSPSAPLSAEFTT
# notes: as for B1
# B11: SEQ ID NO 81 (designed binder, not shown: small tags and cut ends)
# chain: MLPAPKNLVVSRVTEDSARLSWQGVARAFDSFLITYVELRHLGEAIVLTVPGSERSYDLTGLKPGTEYPVWIQGVKGGSPSAPLSAEFTT
# notes: as for B1
# B12: SEQ ID NO 5 (designed binder, not shown: small tags and cut ends)
# chain: MLPAPKNLVVSEVTEDSARLSWQGVARAFDSFLITYREQIFAGEVIVLTVPGSERSYDLTGLKPGTEYWVYIWGVKGGKPSFPLRAGFTT
# notes: as for B1
# B13: SEQ ID NO 84 (designed binder, not shown: small tags and cut ends)
# chain: MLPAPKNLVVSRVTEDSARLSWQGVARAFDSFSILYLELTPKGEAIVLTVPGSERSYDLTGLKPGTEYPVWIQGVKGGSPSAPLSAEFTT
# notes: as for B1
# B14: SEQ ID NO 41 (designed binder, not shown: small tags and cut ends)
# chain: MLPAPKNLVVSRVTEDSARLSWQGVARAFDSFLITYREQIFAGEVIVLTVPGSERSYDLTGLKPGTEYPVWIQGVKGGHLSDPLSAIVTT
# notes: as for B1
# B15: SEQ ID NO 32 (designed binder, not shown: small tags and cut ends)
# chain: MLPAPKNLVVSRVTEDSARLSWQGVARAFDSFLITYREQIFAGEVIVLTVPGSERSYDLTGLKPGTEYGVTIAGVKGGWRSKPLNAESTT
# notes: as for B1
# B16: SEQ ID NO 53 (designed binder, not shown: small tags and cut ends)
# chain: MLPAPENLVVSEVTEDSARLSWQGVARAFDSFLITYREQIFAGEVIVLTVPGSERSYDLTGLKPGTEYPVWIQGVKGGSPSAPLSAESTT
# notes: as for B1
# B17: SEQ ID NO 73 (designed binder, not shown: small tags and cut ends)
# chain: MLPAPKNLVVSEVTEDSARLSWQGVARAFDSFLITYREQIFAGEVIVLTVPGSERSYDLTGLKPGTEYPVWIQGVKGGSPSAPLSAESTT
# notes: as for B1
# B18: SEQ ID NO 28 (designed binder, not shown: small tags and cut ends)
# chain: MLPAPKNLVVSEVTEDSARLSWQGVVRAFDSFLITYREQIFAGEVIVLTVPGSERSYDLTGLKPGTEYPVWIQGVKGGSPSAPLSAEFTT
# notes: as for B1
# B19: SEQ ID NO 1 (designed binder, not shown: small tags and cut ends)
# chain: MLPAPKNLVVSRVTEDSARLSWTAPDAAFDSFPITYIEAVVLGEAIVLTVPGSERSYDLTGLKPGTEYPVGISGVKGGHNSMPLSAIFTT
# notes: as for B1
# B20: SEQ ID NO 192 (designed binder)
# chain: MLPAPKNLVVSRVTEDSARLSWTAPDAAFDSFDIGYTEYGGYGEAIYLSVPGSERSYDLTGLKPGTEYWVLIQGVKGGGSSVPLSAIFTT
# notes: FN3 domain
# B21: SEQ ID NO 172 (designed binder)
# chain: MLPAPKNLVVSRVTEDSARLSWTAPDAAFDSFFIGYLEPQPPGEAIVLTVPGSERSYDLTGLKPGTEYNVTIQGVKGGFPSMPLASFTT
# notes: FN3 domain
# B22: SEQ ID NO 184 (designed binder)
# chain: MLPAPKNLVVSRVTEDSARLSWTAPDAAFDSFFIGYLEPQPPGEAIDLAVPGSERSYDLTGLKPGTEYSVLIHGVKGGLLSSPLSFTT
# notes: FN3 domain
# B23: SEQ ID NO 187 (designed binder)
# chain: MLPAPKNLVVSRVTEDSARLSWTAPDAAFDSFFIGYLEPQPPGEAISLLVPDSERSYDLTGLKPGTEYNVTIQGVKGGFPSMPLKFTT
# notes: FN3 domain
# B24: SEQ ID NO 109 (designed binder)
# chain: MLPAPKNLVVSRVTEDSARLSWTAPDAAFDSFHISYEEDYTFGEAIYLRVPGSERSYDLTGLKPGTEYRVVIGGVKGGWFSEPLLAAFTT
# notes: FN3 domain
# B25: SEQ ID NO 115 (designed binder)
# chain: MLPAPKNLVVSRVTEDSARLSWTAPDAAFDSFYIAYAEPRPDGEAIELHVPGSERSYDLTGLKPGTEYSVLIHGVKGGLLSSPLFTT
# notes: FN3 domain
# B26: SEQ ID NO 191 (designed binder)
# chain: MLPAPKNLVVSRVTEDSARLSWTAPDAAFDSFFIGYLEPQPPGEAIILAVPGSERSYDLTGLKPGTEYNVTIQGVKGGFPSLPLVASFTT
# notes: FN3 domain
# B27: SEQ ID NO 162 (designed binder)
# chain: MLPAPKNLVVSRVTEDSARLSWTAPDAAFDSFYIAYAEPRPDGEAIKLEVPGSERSYDLTGLKPGTEYSVLIHGVKGGLLSSPLAIFTT
# notes: FN3 domain
# B28: SEQ ID NO 111 (designed binder)
# chain: MLPAPKNLVVSRVTEDSARLSWTAPDAAFDSFFIGYLEPQPPGEAIDLGVPGSERSYDLTGLKPGTEYNVTIQGVKGGFPSMPLDPLEAYFTT
# notes: FN3 domain
# Legend:
# [1] = molecular target: T1, recombinant biotinylated CD71 extracellular domain (Sino Biologics) with an N-terminal 6His tag (human, UniProt P02786 89-760, biotinylated (site not stated)); experiment: primary solution ELISA screen
# T1 construct: extracellular domain; also called hCD71; huCD71 ECD
# T1 sequence (P02786 other isoform, or with tags, fused parts or gaps): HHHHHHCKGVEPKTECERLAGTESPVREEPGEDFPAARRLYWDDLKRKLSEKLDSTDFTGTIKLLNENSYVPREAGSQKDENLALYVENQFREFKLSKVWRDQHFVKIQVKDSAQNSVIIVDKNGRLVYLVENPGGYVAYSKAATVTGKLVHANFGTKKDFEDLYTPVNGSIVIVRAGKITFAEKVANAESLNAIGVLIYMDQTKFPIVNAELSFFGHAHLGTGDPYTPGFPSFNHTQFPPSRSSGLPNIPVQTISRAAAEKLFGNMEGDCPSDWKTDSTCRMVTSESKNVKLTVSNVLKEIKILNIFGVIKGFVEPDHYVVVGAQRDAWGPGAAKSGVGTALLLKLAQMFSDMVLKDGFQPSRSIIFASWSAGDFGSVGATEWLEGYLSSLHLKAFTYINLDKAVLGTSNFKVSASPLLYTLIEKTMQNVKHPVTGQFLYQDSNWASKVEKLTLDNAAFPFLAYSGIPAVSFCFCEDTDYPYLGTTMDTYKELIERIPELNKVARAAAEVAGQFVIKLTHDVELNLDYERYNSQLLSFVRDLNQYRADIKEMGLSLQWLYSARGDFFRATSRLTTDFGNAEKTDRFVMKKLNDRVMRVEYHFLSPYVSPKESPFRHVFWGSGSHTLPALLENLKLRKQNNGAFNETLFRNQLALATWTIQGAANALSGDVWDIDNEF
# [2] = molecular target: T1, recombinant biotinylated CD71 …; experiment: primary solution ELISA screen, signal on hCD71 over HSA
# [3] = molecular target: T2, CD71 apical domain (UniProt P02786 189-383, limits assumed); experiment: solution ELISA, signal ratio to HSA
# T2 construct: domain: Apical domain
# T2 sequence (P02786 189-383 limits assumed): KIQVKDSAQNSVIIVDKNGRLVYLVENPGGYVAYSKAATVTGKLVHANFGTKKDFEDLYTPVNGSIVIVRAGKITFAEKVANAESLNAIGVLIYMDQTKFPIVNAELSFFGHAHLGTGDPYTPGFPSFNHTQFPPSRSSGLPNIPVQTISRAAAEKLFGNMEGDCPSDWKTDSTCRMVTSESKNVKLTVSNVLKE
# [4] = molecular target: T3, recombinant biotinylated human CD71 extracellular domain (human, UniProt P02786 89-760, biotinylated); experiment: solution ELISA, signal ratio to HSA
# T3 construct: extracellular domain; also called hCD71; huCD71 ECD
# T3 sequence (P02786 other isoform, or with tags, fused parts or gaps): as the sequence (P02786 other isoform, or with tags, fused parts or gaps) above
# [5] = molecular target: T2, CD71 apical domain; experiment: solution ELISA
# [6] = molecular target: T3, recombinant biotinylated human CD71 …; experiment: solution ELISA
RLU [1] [RLU],hCD71:HSA [2],apical domain:HSA [3],hCD71:HSA [4],"Apical domain, RLU [5] [RLU]","hCD71, RLU [6] [RLU]",Binder
2.95e+06,103,–,–,–,–,B1
–,–,212,58.6,5.47e+06,1.51e+06,B2
–,–,0.9,13.2,106000,1.61e+06,B3
2.1e+06,12,–,–,–,–,B4
991000,10,–,–,–,–,B5
761000,29,–,–,–,–,B6
288000,60,–,–,–,–,B7
1.02e+06,12,–,–,–,–,B8
444000,11,–,–,–,–,B9
512000,35,–,–,–,–,B10
864000,88,–,–,–,–,B11
1.73e+06,39,–,–,–,–,B12
3.53e+06,28,–,–,–,–,B13
1.37e+06,12,–,–,–,–,B14
342000,75,–,–,–,–,B15
1.27e+06,40,–,–,–,–,B16
1.47e+06,73,–,–,–,–,B17
383000,28,–,–,–,–,B18
1.51e+06,96,–,–,–,–,B19
–,–,342,79.9,7.58e+06,1.77e+06,B20
–,–,12.5,13.4,353000,377000,B21
–,–,0.8,27.9,120000,4.04e+06,B22
–,–,1.1,10.9,77900,796000,B23
–,–,0.7,138,28300,5.33e+06,B24
–,–,0.9,20.1,150000,3.47e+06,B25
–,–,143,119,4.66e+06,3.86e+06,B26
–,–,2.5,17,93100,638000,B27
–,–,0.8,17.9,113000,2.41e+06,B28
